Assay results from patent US10421973B2, “Chemically inducible cucumber mosaic virus protein expression system” (THE REGENTS OF THE UNIVERSITY OF CALIFORNIA, priority 2006, dated 2019).
“Also recorded” adds a separate entry of the source. Read-outs that look alike come from different tables or passages of the source.

What was measured:
[1] = system: transgenic plant cell cultures; assay: Effect of stabilizing agents and protease inhibitors on rAAT production in transgenic plant cell cultures; format: cell-based, Nicotiana benthamiana; settings: transgenic plant cell cultures; data not shown
Procedure: The effect of stabilizing agents (bacitracin, PVP, BSA, Pluronic F-68, and mannitol) and protease inhibitors (2-mercaptoethylamine-HCl, AEBSF, benzamidine-HCl and EDTA) on the rAAT production in transgenic plant cell cultures was also evaluated.

[2] = Procedure: (§1) For the investigation of human AAT stability in plant cell cultures, human AAT was added to the cell-free conditioned medium to a final concentration of 2 mg/L and distributed into 6-well-plates. The cell-free conditioned medium was prepared by centrifuging and filtering (through a 0.22 μm filter) the plant cells from 7 day old CMViva cell cultures (pH 5.1). Various protease inhibitors including 2-mercaptoethylamine-HCl (aminopeptidase inhibitor), AEBSF (serine and cysteine proteases inhibitor), benzamidine-HCl (serine protease inhibitor), and EDTA (a metal ion chelator and metalloproteinase inhibitor) were added to the conditioned medium to a final concentration of 10 mM to assess their ability to retard the degradation of human AAT. In another treatment, the conditioned medium was also heated (in boiling water for 30 minutes) or the medium pH was adjusted (from original pH 5.1 to 6.4˜6.6) prior to the addition of human AAT to investigate the human AAT stability. The 6-well-plates containing human AAT in various conditioned medium (4 mL/well) were incubated on an orbital shaker at 140 rpm and 25[…] under ambient light. Samples were taken daily and stored at −80° for further ELISA, western blotting and band shift analysis.
[3] = system: proteases in the cell cultured medium; assay: Effect of protease inhibitors and additives on human AAT degradation in cell-free CMViva conditioned medium; format: biochemical, Nicotiana benthamiana
Procedure: as §1

[4] = 5 day incubation, fresh sterile KCMS medium, pH 5.8

Cl.N=C(N)c1ccccc1 [benzamidine-HCl]
effect on total and functional rAAT production [1]: no significant improvement

human AAT: commercially available human AAT (Calbiochem) used as standard and spiked into media
decline of total human AAT ([2]; 5 day incubation, 7 day old cell-free CMViva culture medium, pH about 5.0): 60% | decline of functional human AAT [2, 4]: ~50% | decline of total human AAT [2, 4]: about 25% | decline of total human AAT ([2]; 5 day period, CMViva culture medium adjusted to pH 6.4): about 25% | functionality of human AAT ([2]; 11 day-old cell-free CMViva medium adjusted to pH 4-5): accelerates the loss of functionality | functionality of human AAT ([2]; 11 day-old cell-free CMViva medium adjusted to pH 7-8): maintains the functionality | functional human AAT as % of the initial concentration ([2]; after 5 days, heated CMViva culture medium): 70% | functional human AAT level ([2]; within 2 days, 7 day old cell-free CMViva culture medium, pH about 5.0): negligible

NCCc1ccc(S(=O)(=O)F)cc1 [AEBSF]
effect of protease inhibitor on human AAT degradation ([3]; 10 mM in 7 day old cell-free CMViva conditioned medium): highest ability to stabilize functional human AAT levels; also recorded: slightly inhibit human AAT degradation | effect on total and functional rAAT production [1]: no significant improvement

OC[C@@H](O)[C@@H](O)[C@H](O)[C@H](O)CO [mannitol]
effect of medium additive on stabilizing functional human AAT ([3]; cell-free conditioned medium, data not shown): did not show significant effect | effect on total and functional rAAT production [1]: no significant improvement
